Results from patent US20240016931A1 (JIANGSU HENGRUI PHARMACEUTICALS, published 2024).

B1: hu3-11 (antibody, human IgG1, kappa, V domains shown)
VH: EVQLVQSGAEVKKPGASVKVSCKASGYTFTDDYMNWVRQAPGQRLEWMGIISPYNGGTSYNQKFKGRVTLTVDKSASTAYMELSSLRSEDTAVYYCAREDYDYDGYAMDYWGQGTTVTVSS
VL: EIVLTQSPATLSLSPGERATLSCRASSSVSYMHWYQQKPGQAPRPWIYATSNLASGVPARFSGSGSGTSYTLTISRLEPEDFAVYYCQQWSSDRTFGGGTKVEIKR
notes: IgG1-YTE, kappa; also called hu3VH2-H110Y + hu3VL4-N93D
B2: AMG157 (tezepelumab, anti-TSLP antibody) (antibody, human IgG2, lambda, V domains shown)
VH: QMQLVESGGGVVQPGRSLRLSCAASGFTFRTYGMHWVRQAPGKGLEWVAVIWYDGSNKHYADSVKGRFTITRDNSKNTLNLQMNSLRAEDTAVYYCARAPQWELVHEAFDIWGQGTMVTVSS
VL: SYVLTQPPSVSVAPGQTARITCGGNNLGSKSVHWYQQKPGQAPVLVVYDDSDRPSWIPERFSGSNSGNTATLTISRGEAGDEADYYCQVWDSSSDHVVFGGGTKLTVLG
notes: positive control
B3: hu179-33 (antibody, human IgG1, kappa, V domains shown)
VH: EVQLVQSGAEVKKPGSSVKVSCKASGYTFSNYLIEWVRQAPGQGLEWIGVIDPGVGDTNYNENFKGRATLTADKSTSTAYIELSSLRSEDTAVYYCAREDNTGTAFDYWGQGTTVTVSS
VL: SIVMTQTPLSLSVTPGQPASISCKASQSVSSDVTWYLQKPGQSPQLLIYYVSEHYTGVPDRFSGSGYGTDFTLKISRVEAEDVGVYYCQQHHRFPLTFGQGTKLEIKR
notes: IgG1-YTE, kappa; also called hu179VH3-N55V + hu179VL8-N53E

Experiments:
[1] = target: T1, His-tagged human TSLP antigen (huTSLP-his) (human); assay: ELISA on human TSLP
T1 construct: Secreted from HEK293E and purified on nickel; whole entry named; also called Human TSLP-his

[2] = target: T1, His-tagged human TSLP antigen …; assay: Biacore T200, antibody captured on Protein A chip, antigen in flow, 1:1 Langmuir
[3] = target: T2, His-tagged cynomolgus monkey TSLP antigen (cynoTSLP-His) (cynomolgus monkey); assay: as above
T2 construct: whole entry named
T2 chain: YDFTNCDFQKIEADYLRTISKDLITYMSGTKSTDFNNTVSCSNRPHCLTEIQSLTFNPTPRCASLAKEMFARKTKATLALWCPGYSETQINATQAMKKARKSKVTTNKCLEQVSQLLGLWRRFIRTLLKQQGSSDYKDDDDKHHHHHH

[4] = target: T1, His-tagged human TSLP antigen …; assay: ELISA, coated huTSLP-his;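 further: binding of antibodies to plate-bound TSLP read as absorbance at 450 nm after TMB colour development, EC50 derived from binding curves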
[5] = target: T3, Fc-tagged human TSLP antigen (huTSLP-Fc) (human, biotin-labeled in the blocking assays); assay: cell-based or functional assay
[6] = target: T1, His-tagged human TSLP antigen …; assay: Biacore (SPR)
[7] = target: T3, Fc-tagged human TSLP antigen (huTSLP-Fc); assay: competition ELISA: plate coated with human-TSLPR-Fc-ECD, biotin-labeled huTSLP-Fc premixed with the antibody dilution series, streptavidin-peroxidase detection, OD450; blocked ligand-receptor pair is TSLP and TSLPR
[8] = target: T3, Fc-tagged human TSLP antigen (huTSLP-Fc); assay: competition FACS: biotin-TSLP-Fc binding to CHOK1-TSLPR/IL-7R cells
native TSLP [9] = target: T4, native TSLP (human, UniProt Q969D9 29-159); assay: cell-based or functional assay
[10] = target: T3, Fc-tagged human TSLP antigen (huTSLP-Fc); assay: competition ELISA: biotin-huTSLP-Fc binding to coated human-TSLPR-Fc-ECD
native TSLP [11] = target: T4, native TSLP; assay: cell-based or functional assay; remark: listed apart in the source

Binder | binding result [1] | Kd [2] | Kd [3] | EC50 [4] | IC50 (nM), inhibition of TSLP-induced proliferation of BaF3 cells overexpressing TSLPR/IL-7R [5] | Kd [6] | IC50 (read off the curve) [7] | IC50 [8] | activity in inhibiting native TSLP-stimulated proliferation of BaF3, relative to AMG157 (native TSLP [9]) | IC50 [10] | IC50 (nM), inhibition of native TSLP-induced proliferation of BaF3-TLSPR/IL-7R cells (native TSLP [11])
B1 | binds |  |  |  |  |  |  |  |  |  | 
B2 |  | 0.00812 nM | 0.00922 nM | 0.722 nM | 0.573 nM | 0.00812 nM | ~0.5 nM | 0.207 nM |  |  | 
B3 |  | 0.000903 nM | 0.0304 nM |  | 0.409 nM | 0.000903 nM |  | 0.187 nM | 100 times | 0.504 nM | 0.0228 nM
